Legend:
[1] = system: mg53−/− myotubes; assay: Membrane repair in transfected mg53−/− myotubes; format: cell-based, mice
From the text: The entry of FM4-64, a red-shifted variant of FM1-43, was used as an index of membrane repair capacity in mg53−/− myotubes transfected with GFP-MG53 and GFP-C242A. Following UV-bleaching of the green fluorescence, rapid translocation of GFP-MG53 took place at the injury site, whereas GFP-C242A remained static due to its defective oligomerization properties (FIG. 16E, 17A).
Similar defects with GFP-C29L were also observed in C2C12 myotubes (FIG. 18e, middle).

[2] = system: Mouse leukaemic monocyte macrophage (RAW 264.7) cells; assay: GFP-MG53 translocation after microelectrode or saponin damage, RAW 264.7; format: cell-based; details: microelectrode or 0.005% saponin
From the text: (§1) MG53 can translocate to membrane repair sites in immune cells. Mouse leukaemic monocyte macrophage (RAW 264.7) cells were transfected with GFP-MG53 and then subjected to mechanical membrane damage by microelectrode needle penetration (top) or treatment with 0.005% saponin to permeabilize the membrane (bottom) (FIG. 49). Translocation of GFP-MG53 to the injury site (arrow) was monitored by live cell confocal microscopy.

[3] = system: C2C12 cells expressing GFP-MG53; assay: Repair of acute membrane damage: translocation to microelectrode injury site; format: cell-based, murine; details: C2C12 cells; acute membrane damage
Experimental: To follow the process of intracellular vesicle translocation associated with repair of acute membrane damage, GFP-MG53 fusion protein was expressed in C2C12 myoblast cells (FIG. 21a). […]
Cell culture—The C2C12 murine myoblast cell line used for all studies was purchased from the American Type Culture Collection (Manassas, Va.). Cells were grown in a humidified environment at 37° C. and 5% CO2 in DMEM medium for C2C12 or Ham's F12 medium for CHO cells supplemented with 10% fetal bovine serum, 100 units/ml penicillin and 100 ug/ml streptomycin. In order to induce myotube differentiation, C2C12 myoblasts were grown to confluence and the medium was switched to DMEM containing 2% horse serum, penicillin (100 U/ml), streptomycin (100 μg/ml). For transient transfections, C2C12 myoblasts or CHO cells were plated at 70% confluence in glass-bottom dishes. After 24 hours, cells were transfected with plasmids described above using GeneJammer reagent (Stratagene). Cells were visualized by live cell confocal imaging at 24-48 hours after transfection or at times indicated for individual experiments. In some experiments, C2C12 myoblasts were allowed to differentiate into myotubes for the indicated time before observation.
Live cell imaging—To monitor intracellular trafficking of GFP-MG53 either CHO or C2C12 cells were cultured in glass-bottom dishes (Bioptechs Inc.) and transfected with the plasmids described above. Fluorescence images (512×512) were captured at 3.18 s/frame using a BioRad 2100 Radiance laser scanning confocal microscope with a 63×1.3NA oil immersion objective.

[4] = system: Human gastric adenocarcinoma (AGS) cells; assay: GFP-MG53 translocation after microelectrode or saponin damage, AGS; format: cell-based; details: microelectrode or 0.005% saponin
From the text: as §1, with “gastric” for “immune”, “Human gastric adenocarcinoma (AGS)” for “Mouse leukaemic monocyte macrophage (RAW 264.7)”, “45).” for “49).”

[5] = system: Mouse primary astrocytes; assay: GFP-MG53 translocation after microelectrode or saponin damage, astrocytes; format: cell-based; details: microelectrode or 0.005% saponin
From the text: as §1, with “neural” for “immune”, “primary astrocytes” for “leukaemic monocyte macrophage (RAW 264.7) cells”, “46).” for “49).”

[6] = system: primary cultures of human keratinocytes; assay: GFP-MG53 translocation after microelectrode or saponin damage, keratinocytes; format: cell-based; details: microelectrode or saponin detergent
From the text: (§2) MG53 can patch the plasma membrane in many different human cell types and prevent cell death. To test if exogenous MG53 can recapitulate membrane resealing function in non-muscle cell types, we used either adenovirus or liposome-based transfection methods to express GFP-MG53 in a number of different cell types. In all cell types tested, MG53 performed in a similar fashion as that seen in muscle cells. Here we illustrate these effects in immortalized human cell lines, including HEK293 (not shown) and human embryonic palatal mesenchymal (HEPM) dental cells (FIG. 43), as well as primary cultures of human keratinocytes (FIG. 42). […] The function of MG53 appears to be essential to allow membrane patching and survival of muscle cells following injury.

[7] = system: human embryonic palatal mesenchymal (HEPM) dental cells; assay: GFP-MG53 translocation after microelectrode or saponin damage, HEPM; format: cell-based; details: microelectrode or saponin detergent
From the text: as §2

[8] = system: Human C38 airway epithelial cells; assay: GFP-MG53 translocation after microelectrode or saponin damage, C38; format: cell-based; details: microelectrode or 0.005% saponin
From the text: as §1, with “airway epithelial” for “immune”, “Human C38 airway epithelial” for “Mouse leukaemic monocyte macrophage (RAW 264.7)”, “47).” for “49).”

B1: WT: wild type MG53 as GFP fusion protein expressed in cells (protein)
chain: MSAAPGLLRQELSCPLCLQLFDAPVTAECGHSFCRACLIRVAGEPAADGTVACPCCQAPTRPQALSTNLQLSRLVEGLAQVPQGHCEEHLDPLSIYCEQDRTLVCGVCASLGSHRGHRLLPAAEAQARLKTQLPQQKMQLQEACMRKEKTVAVLEHQLVEVEETVRQFRGAVGEQLGKMRMFLAALESSLDREAERVRGDAGVALRRELSSLNSYLEQLRQMEKVLEEVADKPQTEFLMKFCLVTSRLQKILSESPPPARLDIQLPVISDDFKFQVWKKMFRALMPALEELTFDPSSAHPSLVVSSSGRRVECSDQKAPPAGEDTRQFDKAVAVVAQQLLSQGEHYWEVEVGDKPRWALGVMAADASRRGRLHAVPSQGLWLLGLRDGKILEAHVEAKEPRALRTPERPPARIGLYLSFADGVLAFYDASNPDVLTPIFSFHERLPGPVYPIFDVCWHDKGKNAQPLLLVGPEQEQA
modifications: left off: large carriers
notes: wild type MG53 as GFP fusion protein expressed in cells
[1]; primary cultured mg53−/− myotubes
  translocation to the plasma membrane following injury: could translocate to the plasma membrane following injury
[1]; transfected mg53−/− myotubes, UV injury
  entry of FM4-64 (membrane repair capacity): Significantly less entry of FM4-64
[2]
  translocation after cell membrane damage: translocation of MG53 to the plasma membrane
[3]
  translocation to injury site and membrane repair function of GFP fusion protein: rapid accumulation
[4]
  translocation after cell membrane damage: translocation of MG53 to the plasma membrane
[5]
  translocation after cell membrane damage: translocation of MG53 to the plasma membrane
[6]
  translocation after membrane damage: effectively translocates to the plasma membrane
[7]
  translocation after membrane damage: effectively translocates to the plasma membrane
[8]
  translocation after cell membrane damage: translocation of MG53 to the plasma membrane
